In paper PMC7048800 one finds Km for the peptide in the fluorescence-based coupled in vitro MYR assay with MyrCoA, 30 °C data, which are given here for one molecule.

Experiment [1] addresses T1, Long-HsNMT1 (human N-myristoyltransferase 1, residues 99-496) (human) (UniProt P30419).
T1 sequence: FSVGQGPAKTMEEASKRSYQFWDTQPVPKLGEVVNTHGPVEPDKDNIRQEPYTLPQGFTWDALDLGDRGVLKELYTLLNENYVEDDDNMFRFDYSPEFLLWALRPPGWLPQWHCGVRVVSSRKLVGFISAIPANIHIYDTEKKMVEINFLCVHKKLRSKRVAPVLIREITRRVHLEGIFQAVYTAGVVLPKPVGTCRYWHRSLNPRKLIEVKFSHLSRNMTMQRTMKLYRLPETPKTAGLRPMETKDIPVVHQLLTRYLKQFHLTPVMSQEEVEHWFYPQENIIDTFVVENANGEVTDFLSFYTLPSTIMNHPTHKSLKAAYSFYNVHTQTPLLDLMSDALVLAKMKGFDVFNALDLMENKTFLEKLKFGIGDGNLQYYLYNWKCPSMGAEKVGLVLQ

For experiment [2], the target named is HsNMT1ΔC2 (HsNMT1 deletion variant with truncation of the last two amino acids) (human) (UniProt P30419).
Experiment [3] concerns the target HsNMT1ΔC3 (HsNMT1 variant with truncation of the last three amino acids) (human) (UniProt P30419).

B1: GlyCysSerValSerLysLysLys (SOS3) peptide (peptide)
peptide: GCSVSKKK
Consider B1, for which the Km for the peptide in the fluorescence-based coupled in vitro MYR assay with MyrCoA, 30 °C in experiment [1] is 18 µM; in experiment [2] it was 629 µM; in experiment [3], 2140 µM.
